Target: foldase protein PrsA of Staphylococcus aureus MW2 (recombinant, without signal peptide) (Staphylococcus aureus MW2)
Assay: SEC-MALS; Superdex 200 Increase 10/300; ~1 mg of protein loaded; 50 mM Tris-HCl, 150 mM NaCl, 2.5% (v/v) glycerol, pH 7.8; flow 0.4 ml/min

Substance: foldase protein PrsA of Staphylococcus aureus MW2 (recombinant, without signal peptide) (natural protein)
- stoichiometry N: 2

Source: article PMC11282748
